Measured values reported in patent publication US20250297005A1 (FORTVITA BIOLOGICS SINGAPORE PTE, published 2025).

T1: human CLDN18.2 on cells (HEK293-hCLDN18.2, DAN-G-hCLDN18.2, NUGC-4) (human, UniProt P56856-2 1-261)
T1 construct: whole, on cells; Transfected full-length gene in HEK293 and DAN-G cells; endogenous in the gastric cancer line NUGC-4; also called Claudin18.2
T1 sequence (looked up): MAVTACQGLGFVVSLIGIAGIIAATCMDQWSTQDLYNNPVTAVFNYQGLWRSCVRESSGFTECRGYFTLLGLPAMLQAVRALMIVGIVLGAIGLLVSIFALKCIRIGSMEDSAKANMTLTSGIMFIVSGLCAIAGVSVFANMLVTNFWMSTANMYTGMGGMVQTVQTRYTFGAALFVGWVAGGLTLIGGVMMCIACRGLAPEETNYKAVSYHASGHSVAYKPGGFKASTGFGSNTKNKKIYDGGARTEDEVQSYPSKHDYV

B1: fully human antibody clone HB37A6 (hybridoma culture supernatant) (antibody, V domains shown)
VH: EVQLLDSGGGLVQPGGSLRLSCAASGFTFSSYVMSWVRQAPGKGLNWVSTISHSGGSTYYADSVKGRFTISRDNSKNTLYLQMNSLRAEDTAVYYCAIDAPYYDILTGYRYWGQGTLVTVSS
VL: not shown
notes: Tested as hybridoma supernatant from H2L2 transgenic mice; also called anti-CLDN18.2 antibody
B2: bispecific antibody 030 (anti-CLDN18.2 moiety HB37A6 x anti-CD3 moiety HzSP34.24) (bispecific antibody, human IgG1, kappa, lambda, L234A L235A)
heavy 1: not shown
light 1: not shown
heavy 2: not shown
light 2: QAVVTQEPSLTVSPGGTVTLTCRSSTGAVTTSNYANWVQQKPGQAPRGLIGGTNKRAPGVPARFSGSLLGDKAALTLLGAQPEDEAEYYCALWYSNLWVFGQGTKLTVLGQPKAAPSVTLFPPSSEELQANKATLVCLISDFYPGAVTVAWKADSSPVKAGVETTTPSKQSNNKYAASSYLSLTPEQWKSHRSYSCQVTHEGSTVEKTVAPTECS
B3: bispecific antibody 032 (anti-CLDN18.2 moiety HB37A6 x anti-CD3 moiety HzSP34.87) (bispecific antibody, human IgG1, kappa, lambda, L234A L235A)
heavy 1: not shown
light 1: not shown
heavy 2: not shown
light 2: B2 light 2

Assays:
[1] = target: T1, human CLDN18.2 on cells …; assay: flow cytometry of hybridoma supernatant on HEK293-hCLDN18.2 cells
Protocol: In the present invention, H2L2 fully human antibody transgenic mice (purchased from Harbour BioMed) were immunized with the cells obtained in Example 1 (CHO-hCLDN18.2) by using the hybridoma technology. Spleen cells from the mice were then harvested and electrofused with myeloma cells. […] The test cells (HEK293-hCLDN18.2) obtained in Example 1 were counted, diluted to 1×10⁶ cells/mL, and then added to a U-bottom 96-well plate at 100 µL/well. The cells were centrifuged at 500 g for 5 min, and the cell medium was removed. The hybridoma culture supernatant in a 96-well plate was added to the U-bottom plate at 100 μL/well, the cells were resuspended, and the suspension was left to stand on ice for 30 min. The suspension was centrifuged at 500 g for 5 min, the supernatant was removed, and the cells were washed once with PBS. 100 μL of FITC-labeled anti-mouse Fab secondary antibody (1:500 dilution in PBS) was added to each well, and 100 μL of FITC-labeled anti-human Fab secondary antibody was added to the positive control antibody. The resulting mixture was incubated on ice in the dark for 30 min. The mixture was centrifuged at 500 g for 5 min, the supernatant was removed, and the cells were washed once with PBS. The cells were resuspended in 50 μL of 1×PBS, and the suspension was loaded for FACS assay. […]

[2] = target: T1, human CLDN18.2 on cells …; assay: cell-based or functional assay

Row | Binder | binding result [1] | EC50 of in vitro T cell (PBMC) killing of gastric cancer cells NUGC-4 [2] | EC50 of in vitro T cell (PBMC) killing of pancreatic cancer cells DAN-G-hCLDN18.2 [2]
1 | B1 | binds | – | –
2 | B2 | – | < 1 pM | < 0.1 pM
3 | B3 | – | < 1 pM | < 0.1 pM
